# Laboratory results as given in patent US20180273599A1.
# T1: betaglycan on LβT2 mouse pituitary gonadotrope cells (mouse) (UniProt O88393)
# T1 sequence (looked up): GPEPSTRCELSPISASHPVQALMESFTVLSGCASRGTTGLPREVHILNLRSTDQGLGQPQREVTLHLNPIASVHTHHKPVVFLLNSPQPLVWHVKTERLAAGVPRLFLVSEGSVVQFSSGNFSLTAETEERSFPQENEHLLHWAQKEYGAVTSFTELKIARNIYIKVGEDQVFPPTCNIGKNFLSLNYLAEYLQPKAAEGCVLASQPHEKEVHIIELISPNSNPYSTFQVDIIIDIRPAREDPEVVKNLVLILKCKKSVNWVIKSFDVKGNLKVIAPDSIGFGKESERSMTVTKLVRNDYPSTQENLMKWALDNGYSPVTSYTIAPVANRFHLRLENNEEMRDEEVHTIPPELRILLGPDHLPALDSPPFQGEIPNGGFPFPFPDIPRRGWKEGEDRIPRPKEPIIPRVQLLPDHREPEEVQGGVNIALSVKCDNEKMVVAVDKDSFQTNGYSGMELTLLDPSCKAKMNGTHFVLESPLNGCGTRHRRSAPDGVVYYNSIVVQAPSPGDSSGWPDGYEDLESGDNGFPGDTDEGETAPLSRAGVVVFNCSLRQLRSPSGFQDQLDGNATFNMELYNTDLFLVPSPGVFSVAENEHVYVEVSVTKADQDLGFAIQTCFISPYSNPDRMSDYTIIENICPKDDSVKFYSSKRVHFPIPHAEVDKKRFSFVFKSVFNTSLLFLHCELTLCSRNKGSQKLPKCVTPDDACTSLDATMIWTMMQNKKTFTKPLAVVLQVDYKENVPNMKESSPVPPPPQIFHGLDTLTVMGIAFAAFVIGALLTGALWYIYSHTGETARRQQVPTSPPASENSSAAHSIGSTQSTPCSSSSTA
# T2: betaglycan on primary rat pituitary cells (rat) (UniProt P26342)
# T2 sequence (looked up): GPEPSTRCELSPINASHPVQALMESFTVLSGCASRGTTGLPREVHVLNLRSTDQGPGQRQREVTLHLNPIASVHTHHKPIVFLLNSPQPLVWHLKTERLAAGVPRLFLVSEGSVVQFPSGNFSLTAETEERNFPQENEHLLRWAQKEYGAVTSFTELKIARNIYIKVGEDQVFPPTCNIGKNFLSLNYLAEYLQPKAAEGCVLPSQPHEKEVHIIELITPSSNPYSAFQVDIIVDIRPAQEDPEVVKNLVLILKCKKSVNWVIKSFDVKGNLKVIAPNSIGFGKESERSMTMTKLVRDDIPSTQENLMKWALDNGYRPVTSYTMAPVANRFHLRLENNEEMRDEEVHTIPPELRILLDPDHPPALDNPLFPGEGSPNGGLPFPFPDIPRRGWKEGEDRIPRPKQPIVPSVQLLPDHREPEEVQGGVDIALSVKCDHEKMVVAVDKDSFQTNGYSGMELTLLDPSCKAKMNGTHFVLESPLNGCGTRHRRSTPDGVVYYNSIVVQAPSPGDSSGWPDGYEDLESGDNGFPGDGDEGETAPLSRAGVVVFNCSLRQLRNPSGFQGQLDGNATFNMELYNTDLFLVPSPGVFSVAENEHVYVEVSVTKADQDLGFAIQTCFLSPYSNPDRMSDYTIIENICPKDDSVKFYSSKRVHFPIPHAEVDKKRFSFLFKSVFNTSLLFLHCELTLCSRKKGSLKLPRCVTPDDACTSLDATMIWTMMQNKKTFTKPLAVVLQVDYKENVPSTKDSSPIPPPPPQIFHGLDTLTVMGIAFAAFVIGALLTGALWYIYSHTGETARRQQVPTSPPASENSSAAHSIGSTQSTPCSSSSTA
# T3: type I receptor (ALK4) (UniProt P36896)
# T3 sequence (looked up): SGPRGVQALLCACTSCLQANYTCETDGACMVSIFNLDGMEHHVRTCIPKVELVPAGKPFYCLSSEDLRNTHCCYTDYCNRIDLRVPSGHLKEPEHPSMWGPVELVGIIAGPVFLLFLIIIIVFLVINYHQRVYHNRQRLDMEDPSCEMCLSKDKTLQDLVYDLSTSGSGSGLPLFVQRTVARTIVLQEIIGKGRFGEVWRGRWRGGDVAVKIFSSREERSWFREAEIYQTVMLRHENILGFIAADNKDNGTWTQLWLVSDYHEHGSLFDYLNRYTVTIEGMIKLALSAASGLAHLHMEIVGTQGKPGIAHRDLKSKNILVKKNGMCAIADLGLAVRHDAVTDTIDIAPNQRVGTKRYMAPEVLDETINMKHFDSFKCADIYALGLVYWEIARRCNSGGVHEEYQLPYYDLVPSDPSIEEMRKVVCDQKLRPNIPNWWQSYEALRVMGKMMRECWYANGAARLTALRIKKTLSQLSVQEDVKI
# T4: HIS-tagged inhibin α-subunit prodomain (human) (UniProt P05111)
# T4 sequence: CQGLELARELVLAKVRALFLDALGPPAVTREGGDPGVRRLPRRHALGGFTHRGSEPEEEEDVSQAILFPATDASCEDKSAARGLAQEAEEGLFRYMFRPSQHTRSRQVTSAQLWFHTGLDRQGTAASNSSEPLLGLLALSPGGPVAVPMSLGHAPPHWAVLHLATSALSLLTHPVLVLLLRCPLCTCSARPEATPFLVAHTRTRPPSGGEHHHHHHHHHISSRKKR
# Assays:
# [1] = biological target: T1, betaglycan on LβT2 mouse pituitary gonadotrope cells (mouse); assay: cell-based or functional assay
# [2] = biological target: T2, betaglycan on primary rat pituitary cells (rat); assay: cell-based or functional assay
# [3] = biological target: T3, type I receptor (ALK4); assay: cell-based or functional assay
# [4] = biological target: T4, HIS-tagged inhibin α-subunit prodomain (human); assay: IMAC (Ni-NTA) co-purification from HEK293T conditioned medium; Western blot and ELISA
Binder,"IC50, FSH release by LβT2 pituitary gonadotrope cells [1]","potency in FSH release by LβT2 cells, against mature inhibin A [1]","IC50, decrease in FSH release by primary rat pituitary cells [2]","activin response, activin-responsive luciferase reporter (A3-Luc) in HEK293 cells, against inhibin A-SCUT without M418A [3]",percent of mature inhibin A co-purified with the HIS-tagged prodomain [4]
Pro-inhibin A (M418A) (ligand) chain 1: CQGLELARELVLAKVRALFLDALGPPAVTREGGDPGVRRLPRRHALGGFTHRGSEPEEEEDVSQAILFPATDASCEDKSAARGLAQEAEEGLFRYMFRPSQHTRSRQVTSAQLWFHTGLDRQGTAASNSSEPLLGLLALSPGGPVAVPMSLGHAPPHWAVLHLATSALSLLTHPVLVLLLRCPLCTCSARPEATPFLVAHTRTRPPSGGEHHHHHHHHHISSRKKRSVSSTPLMSWPWSPSALRLLQRPPEEPAAHANCHRVALNISFQELGWERWIVYPPSFIFHYCHGGCGLHIPPNLSLPVPGAPPTPAQPYSLLPGAQPCCAALPGTMRPLHVRTTSDGGYSFKYETVPNLLTQHCACI chain 2: DYKDDDDKSPTPGSEGHSAAPDCPSCALAALPKDVPNSQPEMVEAVKKHILNMLHLKKRPDVTQPVPKAALLNAIRKLHVGKVGENGYVEIEDDIGRRAEMNELMEQTSEIITFAESGTARKTLHFEISKEGSDLSVVERAEVWLFLKVPKANRTRTKVTIRLFQQQKHPQGSLDTGEEAEEVGLKGERSELLLSEKVVDARKSTWHVFPVSSSIQRLLDQGKSSLDVRIACEQCQESGASLVLLGKKKKKEEEGEGKKKGGGEGGAGADEEKEQSHRPFLMLQARQSEDHPHISSRKKRSVSSGLECDGKVNICCKKQFFVSFKDIGWNDWIIAPSGYHANYCEGECPSHIAGTSGSSLSFHSTVINHYRMRGHSPFANLKSCCVPTKLRPMSMLYYDDGQNIIKKDIQNAIVEECGCS,45 pM,22 fold,75 pM,,
HPLC-purified mature inhibin A (ligand) chain 1: STPLMSWPWSPSALRLLQRPPEEPAAHANCHRVALNISFQELGWERWIVYPPSFIFHYCHGGCGLHIPPNLSLPVPGAPPTPAQPYSLLPGAQPCCAALPGTMRPLHVRTTSDGGYSFKYETVPNLLTQHCACI chain 2: GLECDGKVNICCKKQFFVSFKDIGWNDWIIAPSGYHANYCEGECPSHIAGTSGSSLSFHSTVINHYRMRGHSPFANLKSCCVPTKLRPMSMLYYDDGQNIIKKDIQNMIVEECGCS,1000 pM,,65 pM,,
"activin A (M418A), residual in the inhibin A-SCUT (M418A) preparation (ligand) DYKDDDDKSPTPGSEGHSAAPDCPSCALAALPKDVPNSQPEMVEAVKKHILNMLHLKKRPDVTQPVPKAALLNAIRKLHVGKVGENGYVEIEDDIGRRAEMNELMEQTSEIITFAESGTARKTLHFEISKEGSDLSVVERAEVWLFLKVPKANRTRTKVTIRLFQQQKHPQGSLDTGEEAEEVGLKGERSELLLSEKVVDARKSTWHVFPVSSSIQRLLDQGKSSLDVRIACEQCQESGASLVLLGKKKKKEEEGEGKKKGGGEGGAGADEEKEQSHRPFLMLQARQSEDHPHISSRKKRSVSSGLECDGKVNICCKKQFFVSFKDIGWNDWIIAPSGYHANYCEGECPSHIAGTSGSSLSFHSTVINHYRMRGHSPFANLKSCCVPTKLRPMSMLYYDDGQNIIKKDIQNAIVEECGCS",,,,100 fold lower,
mature inhibin A (M418A) (ligand) chain 1: SVSSTPLMSWPWSPSALRLLQRPPEEPAAHANCHRVALNISFQELGWERWIVYPPSFIFHYCHGGCGLHIPPNLSLPVPGAPPTPAQPYSLLPGAQPCCAALPGTMRPLHVRTTSDGGYSFKYETVPNLLTQHCACI chain 2: SVSSGLECDGKVNICCKKQFFVSFKDIGWNDWIIAPSGYHANYCEGECPSHIAGTSGSSLSFHSTVINHYRMRGHSPFANLKSCCVPTKLRPMSMLYYDDGQNIIKKDIQNAIVEECGCS,,,,,> 90%
